The results in this text go back to PMC5492076, “β-Cyanoalanine Synthases and Their Possible Role in Pierid Host Plant Adaptation” (Insects, 2017).

Common to all, as to assay: colorimetric sulfide formation, Michaelis-Menten fit
Substrate in data set [1]: N[C@@H](CS)C(=O)O
It is filed as biochemical, Colias croceus. Conditions: 6 mM KCN, 20 µM pyridoxal-5'-phosphate, Tris-HCl pH 8.5, 31 °C, 10 min. The source says:
colorimetric sulfide formation, Michaelis-Menten fit on CcBSAS2

Substrate in data set [2]: N[C@@H](CS)C(=O)O
The format is biochemical, Anthocharis cardamines. Conditions: 6 mM KCN, 20 µM pyridoxal-5'-phosphate, Tris-HCl pH 8.5, 31 °C, 10 min. From the text: colorimetric sulfide formation, Michaelis-Menten fit on AcaBSAS1

Substrate in data set [3]: N[C@@H](CS)C(=O)O
The format is biochemical, Anthocharis cardamines. Conditions: 6 mM KCN, 20 µM pyridoxal-5'-phosphate, Tris-HCl pH 8.5, 31 °C, 10 min. From the text: colorimetric sulfide formation, Michaelis-Menten fit on AcaBSAS3
The source holds these as a separate data set.

Substrate in data set [4]: N[C@@H](CS)C(=O)O
The format is biochemical, Spodoptera littoralis. The note with it: 6 mM KCN, 20 µM pyridoxal-5'-phosphate, Tris-HCl pH 8.5, 31 °C, 10 min. The source says:
colorimetric sulfide formation, Michaelis-Menten fit on SlBSAS2b

Substrate in data set [5]: N[C@@H](CS)C(=O)O
The format is biochemical, Aporia crataegi. Conditions: 6 mM KCN, 20 µM pyridoxal-5'-phosphate, Tris-HCl pH 8.5, 31 °C, 10 min. The source says: colorimetric sulfide formation, Michaelis-Menten fit on AcrBSAS1

Substrate in data set [6]: N[C@@H](CS)C(=O)O
It is filed as biochemical, Plutella xylostella. Conditions: 6 mM KCN, 20 µM pyridoxal-5'-phosphate, Tris-HCl pH 8.5, 31 °C, 10 min. The source says: colorimetric sulfide formation, Michaelis-Menten fit on PxBSAS2

Substrate in data set [7]: N[C@@H](CS)C(=O)O
The format is biochemical, Colias croceus. The note with it: 6 mM KCN, 20 µM pyridoxal-5'-phosphate, Tris-HCl pH 8.5, 31 °C, 10 min. From the text:
colorimetric sulfide formation, Michaelis-Menten fit on CcBSAS3
The source holds these as a separate data set.

Substrate in data set [8]: N[C@@H](CS)C(=O)O
The format is biochemical, Gonepteryx rhamni. Conditions: 6 mM KCN, 20 µM pyridoxal-5'-phosphate, Tris-HCl pH 8.5, 31 °C, 30 min. From the text: colorimetric sulfide formation, Michaelis-Menten fit on GrBSAS2

Substrate in data set [9]: N[C@@H](CS)C(=O)O
It is filed as biochemical, Aporia crataegi. The note with it: 6 mM KCN, 20 µM pyridoxal-5'-phosphate, Tris-HCl pH 8.5, 31 °C, 10 min. From the text:
colorimetric sulfide formation, Michaelis-Menten fit on AcrBSAS2
The source holds these as a separate data set.

Substrate in data set [10]: N[C@@H](CS)C(=O)O
The format is biochemical, Spodoptera littoralis. The note with it: 6 mM KCN, 20 µM pyridoxal-5'-phosphate, Tris-HCl pH 8.5, 31 °C, 10 min. The source says: colorimetric sulfide formation, Michaelis-Menten fit on SlBSAS2a
This is another data set of the same source.

Substrate in data set [11]: N[C@@H](CS)C(=O)O
The format is biochemical, Anthocharis cardamines. Conditions: 6 mM KCN, 20 µM pyridoxal-5'-phosphate, Tris-HCl pH 8.5, 31 °C, 10 min. The source says: colorimetric sulfide formation, Michaelis-Menten fit on AcaBSAS2
The source holds these as a separate data set.

Substrate in data set [12]: N[C@@H](CS)C(=O)O
The format is biochemical, Zygaena filipendulae. Conditions: 6 mM KCN, 20 µM pyridoxal-5'-phosphate, Tris-HCl pH 8.5, 31 °C, 10 min. From the text:
colorimetric sulfide formation, Michaelis-Menten fit on ZfBSAS2

B1: CcBSAS2 (Colias croceus) (protein)
chain: MAKVNGIQNEIKESALDLIGNTPIVALDRLHPGPGRILAKCEFMNPGASIKCRSSLHMINKAIEKGLLKPGQSVLEVTSGNQGCGLAVVCSVMGHPLTVTMSMGNSAQRAIHMEALGAKCVRVPQVEGTYGNVTLADVKAAEKEGLRLAEEIGAYYVNQFNNEDNANSHYCTTGPEIWRQTGHRVDAFVATVGTAGTFTGSSRFLKEKNPNIQCYVVEPEGSQPIRGCAITKPLHLLQGSGYGCVPNLFNFETMDGTLSVTDEEASKYMKLIGEKEGLYVGYTSGANVAAAVKLLNSGTLPEDAWVVTLLNDSGLKYTPVPESLSGNSNNANSD
notes: N-terminal Strep-tag, E. coli BL21(DE3) pLysS; Strep-Tactin purified
In the case of B1, in data set [1], the Km was 0.75 (±0.06) mM and the Vmax was 1.04 µmol/min/mg.

B2: AcaBSAS1 (Anthocharis cardamines) (protein)
chain: MGQACEKQTDIRASAIELIGNTPLVALDRLHPGPGRILAKCEFMNPGGSIKCRASLHMIQKARLRGTLKPGDPVVEATSGNQGCGLAVACAVLGHPLTLTMSKGNTVQRAIHMEALGAKCIRVPQVEGTYGNVTNADLMAAKDEAISFHEKTGAFFVKQFVNEDNVEAHYTTTGPEIWYQTGNRVDAFVTAVGTSGTFMGVSKYLKKQNPKIRCYVVEPEGCEPIKGKPITKASNTLQGSSYGVIPDLFKFEYMNETITVTDEEAEEYRDLIGSKEGLYVGYTSGANVCAAVKLLKSGKLPKNAWVVTILFDTGLKYTPVPESLM
notes: as for B1
B2: in data set [2], the Km is given as 0.41 (±0.01) mM and the Vmax was determined as 23.8 µmol/min/mg.

B3: AcaBSAS3 (Anthocharis cardamines) (protein)
chain: MSDSNGIPNEIKASALDLIGNTPLVALDRLHPGPGRILAKCEFMNPGGSIKCRSSLHMIQKARERGELKPGGSVVEVTSGNQGCGLAVVCAVLGHDLTVTMSKGNSIQRVIHMEALGAKCIRYPLVQGTYGNVTFADVEEALEAATNMSEESGAFFVKQFCNLENEEAHYVTTGPEIWRQTGHRVDAFVTAVGTSGTFSGVSTFLKEQNPDVKCFVVEPEGSQPLKGCPITKPLHLLQGASYGIIPDLFKPDLMEDSISVTDKEAVHYKDLIGTKEGLFVGYTSGANVAAAVKLLNSGKLPKDAWVVTTLCDTGLKYTPVPESLIE
notes: as for B1
On to B3, for which, in [3], the Km is given as 0.96 (±0.04) mM and the Vmax turned out to be 1.41 µmol/min/mg.

B4: SlBSAS2b (Spodoptera littoralis) (protein)
chain: MAPVEKNLKDEQPKYLKGDIKASALELIGNTPMVALDRLYSGPGRILAKCEFMNPGASIKCRSSLSMINRAIASGELKPGEPVVEITSGNQGCGLAVVCAVLGHPLTLAMSKGNSVQRALHMEALGAKVVRVDQVKGTYGNVTYADVEVVREVCDKLVKDQNAYFVNQFSNEANADAHYESTGPEIWQQTGHHVDAFVAAVGTAGTFMGTSRYLKEQNPNIKAYVVEPAGAEAIAGCEVTKPLHLLQGSGYGLIPDLLKYEFMDGSLSVTDEEAVKYMKLIGEKEGLYVGYTSGANVAAAIKLLESGLVPEDAWVVTVLADTGLKYTPVPEELMK
notes: as for B1
With B4, in data set [4], the Km is on record as 1.07 (±0.03) mM and the Vmax was determined as 11.6 µmol/min/mg.

B5: AcrBSAS1 (Aporia crataegi) (protein)
chain: MGQTCEKQTDIRSSALELIGNTPLVALDRLYPGPGRLLAKCESMNPGGSIKDRASYHMIKKARLRGELKPGDPVIEATSGNQGCGLAVSCAVLGHPLTLTMSKGNTVQRAIHMEALGATCVRVPQVEGTYGHVTNADLMVVKKEAIVLQQKTGAFFVNQFLNEDNVEAHYISTGPEIWHQTAGRVNAFVTAVGTSGTFMGVSRFLKKQNPKIQCYVVEPEGCEPIKGKPIIKASNTLQGSSYGLVPDLFKYEVMSETITVTDEEAQEYMHLIGKKEGLYVGYTSGANVCAAVKLLKSGKLSKKAWVVTILFDTGLKYTPVPSLM
notes: as for B1
Consider B5, for which, in data set [5], the Km is on record as 0.26 (±0.00) mM and the Vmax was 14 µmol/min/mg.

B6: PxBSAS2 (Plutella xylostella) (protein)
chain: MSTIDGVIDGVHNEVKASALELIGNTPLVALDRLHPGPGRLLVKCEFMNPGASLKDRSSLHMIQDARAEGRLAPGAPVVEITSGNQGCGLAVVCAVLGHPLTLTMSAGNSVQRALHMEALGARCVRVPQVEGRYGSVTFADVEVCEKEGHKIVEETGAFLVNQFHNPSNSLSHYKMMGPEIWRQTGGRVDGFVATMGTGGVFTGTSRFLKEQNKDVKTYVVEPAGAEVIKGDAITKPLHLLQGSGYGYVPSLFDRSLLDGTLAVTDEETLEYRRLIGEKEGLFVGYTSAANVAAAARLLRSGQLPPDAWVVTILCDTGLKYC
notes: as for B1
Regarding B6, in data set [6], the Km is 0.52 (±0.04) mM and the Vmax was determined as 3.72 µmol/min/mg.

B7: CcBSAS3 (Colias croceus) (protein)
chain: MTSSTNFPTDIKSSALELIGNTPLVALDRLHPGPGRILAKCEFMNPGASIKCRSSLHMIQKARERGDLKPGDPVIEVTSGNQGCGLAVVCAVLGHPLTLTMSKGNSVQRAIHMEALGAKCIRYPQVEGTYGNITYADVSIPIEAAVTLAEETGAYFVQQLCNEDNSAAHYEATGPEIWRQTGHRVDGFVTAVGTSGTFSGVSKFLKEQNPEILCCVVEPAGSEPLKGCPIVKPKHLLQGSSYGIVPNLFKPEFMDESISVTDEETEHYKDLIGKKEGLYVGYTSGANVAAAVKLLKSGKLPKDAWVVTVLCDSGLKYTPVPESLIN
notes: as for B1
For the protein B7, in data set [7], the Km is recorded as 1.50 (±0.08) mM and the Vmax is 0.43 µmol/min/mg.

B8: GrBSAS2 (Gonepteryx rhamni) (protein)
chain: MAKVNGIHSEIKESALDLIGNTPIVALDRLHPGPGRILAKCEFMNPGASIKCRSSLHMIQVAREKGLLKPGQPVLEVTSGNQGCGLAVVCSVMGHPLTVTMSKGNSVQRAIHMEALGAKCVRVPQVEGTYGNVTLADVKAAEQEGLRIAEETGAYYVNQFSNDDNANSHYCTTGPEIWRQTGHRVDAFVATVGTAGTFAGSSAYLKEKNPKIQCYVVEPEGSQPIRGCPITKPLHLLQGSGYGCIPNSFKFDTMDGTLSVTDEEATRYKNLIGEKEGLYVGYTSGANIAAAVKLLNSGKLPEDAWVVTLLNDSGLKYTPVPESLT
notes: as for B1
As for B8, in data set [8], the Km was 0.37 (±0.00) mM and the Vmax was 0.24 µmol/min/mg.

B9: AcrBSAS2 (Aporia crataegi) (protein)
chain: MAKVNGIKNEIKTSALELIGETPLLALDRLHPGPGRILVKCEFMNPGASIKCRSSLHMIQEARAKGLLKPGQPVLEVTSGNQGCGLAIVCAIYGHPLTVTMSKGNSLQRAIHMEALGAKCVRVPQVEGTYGNVTVNDVNAAEEEGLKIVKETGAYYVNQFNNEDNANSHYLTTGPEIWRQSGHNVDAFVATVGTAGTFAGTSRYLKEKNPNIKCFVVEPEGSQPIKGCPITKPLHLLQGSGYGCIPNLFNFDTMDGTLSVTDEEAVEYKNLIGEKEGLFVGFTSGANVAAAVKLLKSGLIPENSCLVTILNDTGLKYTPVAESLI
notes: as for B1
As for B9, in data set [9], the Km is reported as 0.58 (±0.04) mM and the Vmax is 2.09 µmol/min/mg.

B10: SlBSAS2a (Spodoptera littoralis) (protein)
chain: MAPIEKDEQPKYLEGDIKASALELIGNTPLVALDRLYTGPGRILAKCEFMNPGASIKCRSSLSMINRAIASGELKPGEPVVEITSGNQGCGLAVVCAVLGHPLTLAMSKGSSAQRALHMEALGAKCVRVDQVEGTYGNVTYADVKAVEEVGMKIVEEQNAYFVNQFHNEANADAHYKSTGPEIWKQTGHHVDAFVATVGTSGTFAGTSRYLKEQNPDIKTYVVEPAGAEAIAGCPITKPLHLLQGSGYGWIPDLFKFEHMDGTLSVTDEEAVKYMKLVGEKEGLYVGYTSGANVAAAVKLLESGLIPEDAWVVTLLNDTGLKYTPVPEELFK
notes: as for B1
Turning to B10, in data set [10], the Km was 0.60 (±0.01) mM and the Vmax turned out to be 1.44 µmol/min/mg.

B11: AcaBSAS2 (Anthocharis cardamines) (protein)
chain: MTKENGIPNEIKSSALDLIGETPLLALDRLHPGPGRILVKCEFNNPGASIKCRSAMHMIQEARAKGELKPGQPVLEVTSGNQGVGLAIVCAIYGHPLTATMSKGNSVQRAVHMEALGAKCIRVPQVEGTYGNVTINDVKAAEEEGLKIAKETGAYYVNQFNNDDNANSHYLTTGPEIWRQSGHHVDAFIATVGTAGTFAGTSRYLKEKNPDIQCYVVEPEGSQPIRGCEITKPLHLLQGSGYGCIPNLFKFETMDGTLSVTDEEAVRYKNLVGEKEGLYVGYTSGANVAAAVKLLKSGKLPEDAWVVTPLNDSGLKYTPVPDSLT
notes: as for B1
In the case of B11, in data set [11], the Km is 0.44 (±0.01) mM and the Vmax came to 1.76 µmol/min/mg.

B12: ZfBSAS2 (Zygaena filipendulae) (protein)
chain: MSPPVLQHHDEIKSSALELIGNTPIVALDRLYTGPGRILAKCEFMNPGASIKCRSSLYMIQKALDEKLLKPGEPVLEVTSGNQGCGLAVVCAVLQHPLTLTMSKGNSAQRAVHMAALGAKCIRVPQVEGTYGNVTLADVKAAEAEGLRIVEKTGAYYVNQFNNEANTLAHYETTGPEIWRQTGGRVDAFVATVGTAGTFTGTSKYLKEKNPELKAYVVEPQGSEPIKQLPITKPLHVLQGSGYGCIPNLFNYSTMNDTISVTDEESKHYKKLLGTKEGLYVGYTSGANVAAAVKLLESGTLPDDAWVVTTLNDSGLKYSPTPDEIELSD
notes: as for B1
Take B12: in [12], the Km is 0.74 (±0.04) mM and the Vmax was 2.99 µmol/min/mg.

Usually Vmax stands for the top rate of the reaction or transport when substrate is in excess.
